These results are taken from the DeepSol protein solubility set.

The series can be described thus: soluble on expression in E. coli; label from the status in PepcDB or PDB records.
As to “MIQAAKIKQLKSLDSDLEKAIGRISGGLYIITAQKGEVKGAMLASWVSQASFNPPGFTVAVAKDRAIESLMQVGDRFVLNILEEGNYQILMKHFLKRFPPGADRFAGVKTQTASNGSPILTDALAYLECEVASRMECSDHWIVYSQVTNGRVAKAEGLTAVHHRKVGNYYLEHHHHHH”, the “soluble on expression in E. coli” value is given as “soluble”.

For the sequence “MSLKKKIAVVTGATGGMGIEIVKDLSRDHIVYALGRNPEHLAALAEIEGVEPIESDIVKEVLEEGGVDKLKNLDHVDTLVHAAAVARDTTIEAGSVAEWHAHLDLNVIVPAELSRQLLPALRAASGCVIYINSGAGNGPHPGNTIYAASKHALRGLADAFRKEEANNGIRVSTVSPGPTNTPMLQGLMDSQGTNFRPEIYIEPKEIANAIRFVIDAGETTQITNVDVRPRIELADRKEGHHHHHH”, the “soluble on expression in E. coli” value is reported as “soluble”.

Turning to “MDIRELVHLGRYAVWNAFEGKEIKVPEALKEKYSRNMGVFTTLKTYPEHNLRGCIGVPLPVYPLWYATVYSSLQAAFQDPRFYPLKKEEFDKVLWEITLLTPPEELKVPKEELPEQIEIGKHGLIIEKGEQKGLLLPQVPVEYGWSPVEFLEYTCLKAGLPKDCWKDKETKVYVFSGEVYQEKEPFGEVERVNLKLEHHHHHH”, the “soluble on expression in E. coli” value is given as “soluble”.

Regarding “MGLLDLIGRKRARDKPQNSYEGQDFSYLFGRTTSGENVDEFKTMQTTAVYACVRVLAEAVASLPIHIYERTENGKEKKLDHPLYFLLHDEPNPEMSSFIFRETIMSHLLIWGNAYVQIIRDKSGMVSLLLKQKASVLIRKLLLIIWQRMP”, the “soluble on expression in E. coli” value is on record as “not soluble”.

With “MKKRYKNPEKSGSCGNFIQAIKMTDKVQPLESLSKKPEEPKIVVNLRRIKRKIMVMSGKGGVGKSTVAANLAVGLALRGHRVGLLDCDIHGPTVPTIFGLESARPGVSEEGILPIEVLPNLSVMSIGFLLENKDSPIIWRGPAKMGAIKQFLEEVFWGALDFLIIDLPPGTGDEPLSVAQLIPNCDGSVLVTTPQDVALISVRKSITFSEKLNVPIIGLVDNMHGLICPHCGKPIEVFGSGGVEKASKDFNIPILARLPIEPGVAEMEDRGTVVQDQLKHGTEWQKNFDNVVDAVEKILEKELEHHHHHH”, the “soluble on expression in E. coli” value is “soluble”.

For “MQPLLEAQKKLLPDLLDVMQKRYQILHSISLMAPIGRRALAASLGMSERVLRSETEFLKGQNLLSADVSGMRLTEEGQALLHTLNDLMREALGLKELEAALQEQLGIPRVIVVAGDSDRSPWVKKEMGRACVACMKELLEPGDIVAVAGGTTMAAVAEMMTPDSKLRDVLFVPARGGLGEDVENQANTICAKMAEKAMGRYRLLHVPDQLSDEAYASLVEEPAVKEVLELIQSCRMVVHGIGEAVTMAKRRKTPPVEMEKIIARHAVAEAFGYYFNEYGDVVHKVKTVGIQLEHLPHVEHVIAVAGGASKAKAIRAYMKRAPHSLLVTDEGAAKAFVGE”, the “soluble on expression in E. coli” value is “not soluble”.

Consider “GPHMLGILNKMFDPTKRTLNRYEKIANDIDAIRGDYENLSDDALKHKTIEFKERLEKGATTDDLLVEAFAVVREASRRVTGMFPFKVQLMGGVALHDGNIAEMKTGEGKTLTSTLPVYLNALTGKGVHVVTVNEYLASRDAEQMGKIFEFLGLTVGLNLNSMSKDEKREAYAADITYSTNNELGFDYLRDNMVLYKEQMVQRPLHFAVIDEVDSILIDEARTPLIISGQAAKSTKLYVQANAFVRTLKAEKDYTYDIKTKAVQLTEEGMTKAEKAFGIDNLFDVKHVALNHHINQALKAHVAMQKDVDYVVEDGQVVIVDSFTGRLMKGRRYSEGLHQAIEAKEGLEIQNESMTLATITFQNYFRMYEKLAGMTGTAKTEEEEFRNIYNMQVVTIPTNRPVVRDDRPDLIYRTMEGKFKAVAEDVAQRYMTGQPVLVGTVAVETSELISKLLKNKGIPHQVLNAKNHEREAQIIEEAGQKGAVTIATNMAGRGTDIKLGEGVKELGGLAVVGTERHESRRIDNQLRGRSGRQGDPGITQFYLSMEDELMRRFGAERTMAMLDRFGMDDSTPIQSKMVSRAVESSQKRVEGNNFDSRKQLLQYDDVLRQQREVIYKQRFEVIDSENLREIVENMIKSSLERAIAAYTPREELPEEWKLDGLVDLINTTYLDEGALEKSDIFGKEPDEMLELIMDRIITKYNEKEEQFGKEQMREFEKVIVLRAVDSKWMDHIDAMDQLRQGIHLRAYAQTNPLREYQMEGFAMFEHMIESIEDEVAKFVMKAEIENNLEREEVVQGQTTAHQPQEGDDNKKAKKAPVRKVVDIGRNAPCHCGSGKKYKNCCGRTE”, for which the “soluble on expression in E. coli” value is given as “soluble”.

As for “MHSMKLLVTGGMGFIGSNFIRYILEKHPDWEVINIDKLGYGSNPANLKDLEDDPRYTFVKGDVADYELVKELVRKVDGVVHLAAESHVDRSISSPEIFLHSNVIGTYTLLESIRRENPEVRFVHVSTDEVYGDILKGSFTENDRLMPSSPYSATKAASDMLVLGWTRTYNLNASITRCTNNYGPYQFPEKLIPKTIIRASLGLKIPIYGTGKNVRDWLYVEDHVRAIELVLLKGESREIYNISAGEEKTNLEVVKIILRLMGKGEELIELVEDRPGHDLRYSLDSWKITRDLKWRPKYTFDEGIKKTIDWYLKNEWWWKPLVDERILHPTPWKLKW”, the “soluble on expression in E. coli” value is recorded as “soluble”.

As for “MKSFILGPLGLLVAICCLYQPADAALAAMSIDLGSQFIKIGLVKPGVPMDIVLNKESRRKTPNVISFKNDERFFAEAAAAMSSSHPQSSYNFLLSMIARKEGDDAFVTFQKTFPFTAFEFDEVRKTVVFPYKEEKYNVETLLAMILWNAKKVTEAYADQTVKDVVITVPIFLNQAERRAIASAAEIAGLNLLQLLNDGSAAALNYGVFRRKEITEKPTHMLIYDMGAVKTTATIVQYVLESTRKDGKDKQPTLRTVGVGFDKTLGGLEITNRLRDHLEKVFRDTVKTSKDISTNARAIGKLHKEAERVKQVLSANKDTYAQVESLFEEQNFRAKVTREELEKMIEDLEPRIAAPILDAIGMAQISTNDIDLVVLMGAGTRVPKVKEILKTILKDKEISNFLNTDEAIAMGAVYQAAHLSKSFKVLPFNVHEKILYPVFVNFLTKTEEGTMKPIRKSLFGENYPVPNRVMHFSSYSDDFKIDIQDADKNPLSTVEISGVKDAIEKEVTDENSVLKGVKTTFSIDLSGIVSVEKASVVVEKVPTPEEKDKYEVDKKEFDEWEKEQEELKKKEKAEKKEKEEKKKTEGEEEKNEDAAGEEKTEEKTEEVEKPVVVKKTKPVEPKAKKINVALTIKETKTDNIDLNEEEVTAAKKVLGDFEQKEKEKHDREEAMNRLEGLLYDLAVRLEDGEEYAEYATEEEKKAILEEVAVLKLWFEDDVSLETKKEEFDEKRAKLEELTAKPNARKQERLDIPKVAEIIEDHFNRSMTFHAMALNLTQFEEGNKTFTDTELEVLTKLIESTTEWWNEKKDLFEKQAKNEDPVVKASEIAEKARDLEREVRYLVNKLKIASSKKSKESEKKKKTKKEKDTVKERKEEETTETTTEDQANEQQTPPPFENDNTKDDESASTEEPKKDTEHDASEL”, the “soluble on expression in E. coli” value is recorded as “not soluble”.

“MAHHHHHHMAAVFSTDASPSADVAVTAQFRVARGEYPTLAVLKQVPLLDDEALRLAMEKLAARRAGHTAGGGADGEPEGVDYTRYTTVDGEGTQACPCKDTGVWPAWVFSPGIQLMARRLRVRELSLEFLSLIDSMMAVNPADRPTAEAVLLDSPVFGMRMPWWEKVVEKAVRRVVEGKENVLLDVCVGDSDEEEEEDEEEAALVRRTMMPLVLPAENHGYVPHNVIHWWNVDLTRGEPDHTKWLSPTSLLASLLTTVRDLTGLEAARDAQDPVLREVPLYTATSLQFVERVCVPVRGTDVSARKIEDGPLFRELEAGGHSTGFFIHVQIRIRAIARAGQVLMANGWAEEEDVADQEEMARRAMEELVATTEKWLLSREATTGVAALHVLPWVSWHLNEEEAGTDGSTQHCFIVEYAAAGPGDGQPQPCANESSVTGEVSSVFRDWRANLTDGLQRLCCDDATAPDETTHDGASNAPRGGLRLEEKLEAMLDALEAVESELMERQKRNEAHQGLLQDHVVHWLSVRAAPSVERCMETLQGVCGGGDVSSQQIHEWILTTVFTSEGAMALMPVLRI”: the “soluble on expression in E. coli” value is “not soluble”.

For “SLKVNNLIAGALNLNSKDYKKSGKKVSFDKNNLFSSIFQAESVKEDKHFILLENGEFNLDLIKSMLDGINETGERLLSEPSRQNVIFYKKVISEFISIIISSSVCLKEQKGGNLGDPKRPKYRIIKIINDKLDKLAYSVLQNQMTQIKLLDSIEEIQGLLVNLLM”, the “soluble on expression in E. coli” value was “soluble”.

Regarding “NSPITIGLALNKKLNNHWSIETGLQYIYLKSEFTTGKEYRIQKTQKLHYIGIPLRISYRFGNYKQFSFYSTAGLQMEIPIKGTLHTSHVTDSVPINLGYQSLDVPLQWSINASTGVQYHFTPHTSIYIEPTINYYIPDGSSLRTIRKEHPVTFSVPVGIRFSW”, the “soluble on expression in E. coli” value is listed as “not soluble”.

As to “MCELDILHDSLYQFCPELHLKRLNSLTLACHALLDCKTLTLTELGRNLPTKARTKHNIKRIDRLLGNRHLHKERLAVYRWHASFICSGNTMPIVLVDWSDIREQKRLMVLRASVALHGRSVTLYEKAFPLSEQFQRKLMTNFLEHHHHHH”, the “soluble on expression in E. coli” value was “not soluble”.

For “ELHPRTGRLVSLSACGRTARRQQPGQEFNHGLVLSREPLRDGRVFTVRIDRKVNSWSGSIEIGVTALDPSVLDFPSSATGLKGGSWVVSGCSVLRDGRSVLEEYGQDLDQLGEGDRVGVERTVAGELRLWVNGRDCGVAATGLPPRVWAVVDLYGKCTQITVL”, the “soluble on expression in E. coli” value is “soluble”.

In the case of “MNEKKERIIKTSIRLFAKKGFAATTIQEIASECGISKGAFYLHFKSKEALLLSACEYYIGMSMNKMKNIEEDLAGKPPKEVLKKQIGAQFEDFRDHKDFIVLLLTENIIPENQEIKQYFYKVTMETDKLYRNALLVSYGEGIERYVADLSIMARGIVHSYMNVMVFNGELNIDAEEISAFIIERLDDLVQGLSRSALNPIVSKDIFNPMPAGKDQLLEDIQKVKENSTLPEDITVSLDVIEEELTQDKPRKPIIKGMLSNLAGTNDKEVERLRALILSLSQFDHKKSSL”, the “soluble on expression in E. coli” value was “not soluble”.

Turning to “MGHHHHHHSHMKPIATVGESYQYPPVNWAALLSPLMRLNFGEEIQQLCLEIMVTQAQSSQNAAALLGLWVTPPLIHSLSLNTKRYLLISAPLWIKHISDEQILGFVENLMVAVFKAASPLGSPELCPSALHGLSQAMKLPSPAHHLWSLLSEATGKIFDLLPNKIRRKDLELYISIAKCLLEMTDDDANRIAQVTKSNIEKAAFVKLYLVSQGRFPLVNLTDMLSVAVQHREKEVLAWMILHSLYQARIVSHANTGVLKRMEWLLELMGYMKCCLPVNILSQYGS”, the “soluble on expression in E. coli” value is “not soluble”.

Turning to “MEKELKALTKRLQQYNEQLLLIARRARERNEEPDFFGDVKPMAEEVQAVAERWKDAASRWVRHARPKYVHERQIEAAADHMAKLCVEAFYPSVPERRIKQYSQAVAYTLALVKERLDDTSEAGKERL”, the “soluble on expression in E. coli” value is “not soluble”.

In the case of “MSYNLLGFLQRSSNFQSQKLLWQLNGRLEYCLKDRMNFDIPEEIKQLQQFQKEDAALTIYEMLQNIFAIFRQDSSSTGWNETIVENLLANVYHQINHLKTVLEEKLEKEDFTRGKLMSSLHLKRYYGRILHYLKAKEYSHCAWTIVRVEILRNFYFINRLTGYLRN”, the “soluble on expression in E. coli” value is listed as “not soluble”.

For “MGSDKIHHHHHHQTPAPLAEWQFSAGIPLEKLFEDTIPDWEVRLGGAAMVRPRYDGSSNYIVVGGPSIDIRYRDIAFASIGEGLGVNVLRGKNWRAGIALSYNLGRRAKETSPLLDGMENINPAPEAKLFAEYAVSKEFPLVMRVDARRSLGGSDGWIGDIGAYMPMPGSSEKFFWFAGPTMTLADSRYMNAWYGVSASQARPGRPQFSPSGGVRSYGFGVSAVWFFDKHWFATTDVAVMQLVGDAKRSPLTQSSTNGVFDVSVNYQF”, the “soluble on expression in E. coli” value is recorded as “not soluble”.
